Measurements: patent publication US20260070987A1
Positions count from the first letter of the chain named. Names and notes keep the numbering of the source.

B1: equine IgG1 T286M (antibody, part only; not given: variable domains, not shown: another chain or arm of the molecule)
constant: ASTTAPKVFALAPGCGTTSDSTVALGCLVSGYFPEPVKVSWNSGSLTSGVHTFPSVLQSSGFYSLSSMVTVPASTWTSETYICNVVHAASNFKVDKRIEPIPDNHQKVCDMSKCPKCPAPELLGGPSVFIFPPNPKDTLMITRTPEVTCVVVDVSQENPDVKFNWYMDGVEVRMATTRPKEEQFNSTYRVVSVLRIQHQDWLSGKEFKCKVNNQALPQPIERTITKTKGRSQEPQVYVLAPHPDELSKSKVSVTCLVKDFYPPEINIEWQSNGQPELETKYSTTQAQQDSDGSYFLYSKLSVDRNRWQQGTTFTCGVMHEALHNHYTQKNVSKNPGK
B2: equine IgG1 T286P (antibody, part only; not given: variable domains, not shown: another chain or arm of the molecule)
constant: B1 constant with M174P
B3: equine IgG4 M428D (antibody, part only; not given: Variable domains, not shown: another chain or arm of the molecule)
constant: ASTTAPKVFPLASHSAATSGSTVALGCLVSSYFPEPVTVSWNSGALTSGVHTFPSVLQSSGLYSLSSMVTVPASSLKSQTYICNVAHPASSTKVDKKIVIKECNGGCPAECLQVGPSVFIFPPKPKDVLMISRTPTVTCVVVDVGHDFPDVQFNWYVDGVETHTATTEPKQEQFNSTYRVVSVLPIQHKDWLSGKEFKCKVNNKALPAPVERTISKPTGQPREPQVYVLAPHRDELSKNKVSVTCLVKDFYPTDIDIEWKSNGQPEPETKYSTTPAQLDSDGSYFLYSKLTVETNRWQQGTTFTCAVDHEALHNHYTEKSVSKSPGK
B4: equine IgG4 N434G (antibody, part only; not given: variable domains, not shown: another chain or arm of the molecule)
constant: B3 constant with D308M, N314G
B5: equine IgG4 M428N (antibody, part only; not given: variable domains, not shown: another chain or arm of the molecule)
constant: B3 constant with D308N
B6: equine IgG4 M428E (antibody, part only; not given: variable domains, not shown: another chain or arm of the molecule)
constant: B3 constant with D308E
B7: equine IgG4 M428Q (antibody, part only; not given: variable domains, not shown: another chain or arm of the molecule)
constant: B3 constant with D308Q
B8: equine IgG4 N434L (antibody, part only; not given: variable domains, not shown: another chain or arm of the molecule)
constant: B3 constant with D308M, N314L
B9: equine IgG4 N434C (antibody, part only; not given: Variable domains, not shown: another chain or arm of the molecule)
constant: B3 constant with D308M, N314C
B10: equine IgG4 M428G (antibody, part only; not given: variable domains, not shown: another chain or arm of the molecule)
constant: B3 constant with D308G
B11: equine IgG4 M428T (antibody, part only; not given: variable domains, not shown: another chain or arm of the molecule)
constant: B3 constant with D308T
B12: equine IgG4 N434A (antibody, part only; not given: Variable domains, not shown: another chain or arm of the molecule)
constant: B3 constant with D308M, N314A
B13: equine IgG4 N434H (antibody, part only; not given: Variable domains, not shown: another chain or arm of the molecule)
constant: B3 constant with D308M, N314H
B14: equine IgG4 M428V (antibody, part only; not given: Variable domains, not shown: another chain or arm of the molecule)
constant: B3 constant with D308V
B15: equine IgG4 N434K (antibody, part only; not given: variable domains, not shown: another chain or arm of the molecule)
constant: B3 constant with D308M, N314K
B16: equine IgG4 M428S (antibody, part only; not given: variable domains, not shown: another chain or arm of the molecule)
constant: B3 constant with D308S
B17: equine IgG4 M428K (antibody, part only; not given: variable domains, not shown: another chain or arm of the molecule)
constant: B3 constant with D308K
B18: equine IgG4 M428H (antibody, part only; not given: variable domains, not shown: another chain or arm of the molecule)
constant: B3 constant with D308H
B19: equine IgG4 N434I (antibody, part only; not given: variable domains, not shown: another chain or arm of the molecule)
constant: B3 constant with D308M, N314I
B20: equine IgG4 M428I (antibody, part only; not given: variable domains, not shown: another chain or arm of the molecule)
constant: B3 constant with D308I
B21: equine IgG4 M428L (antibody, part only; not given: Variable domains, not shown: another chain or arm of the molecule)
constant: B3 constant with D308L
B22: equine IgG4 M428P (antibody, part only; not given: variable domains, not shown: another chain or arm of the molecule)
constant: B3 constant with D308P
B23: equine IgG4 N434D (antibody, part only; not given: Variable domains, not shown: another chain or arm of the molecule)
constant: B3 constant with D308M, N314D
B24: equine IgG4 M428R (antibody, part only; not given: variable domains, not shown: another chain or arm of the molecule)
constant: B3 constant with D308R
B25: equine IgG4 M428Y (antibody, part only; not given: variable domains, not shown: another chain or arm of the molecule)
constant: B3 constant with D308Y
B26: equine IgG4 M428F (antibody, part only; not given: variable domains, not shown: another chain or arm of the molecule)
constant: B3 constant with D308F
B27: equine IgG4 M428W (antibody, part only; not given: variable domains, not shown: another chain or arm of the molecule)
constant: B3 constant with D308W
B28: equine IgG4 N434F (antibody, part only; not given: variable domains, not shown: another chain or arm of the molecule)
constant: B3 constant with D308M, N314F
B29: equine IgG4 N434E (antibody, part only; not given: variable domains, not shown: another chain or arm of the molecule)
constant: B3 constant with D308M, N314E

Biological target: equine FcRn (large alpha subunit p51) / equine beta-2-microglobulin complex, biotinylated (equine) (UniProt P30441)
Experiment: SPR (Biacore), pH 6

Sequence of UniProt P30441 (P30441 21-118, one chain of several): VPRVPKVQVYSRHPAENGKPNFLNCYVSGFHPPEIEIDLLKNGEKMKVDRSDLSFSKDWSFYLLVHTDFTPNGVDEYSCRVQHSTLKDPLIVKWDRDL

Binder	Kd
B1	15.6 nM
B2	14.6 nM
B3	40.7 nM
B4	21.2 nM
B5	44.3 nM
B6	40.8 nM
B7	30 nM
B8	48.5 nM
B9	113 nM
B10	31.5 nM
B11	71.8 nM
B12	17.4 nM
B13	5.2 nM
B14	75.2 nM
B15	42.8 nM
B16	40.6 nM
B17	46.2 nM
B18	29.4 nM
B19	40.6 nM
B20	49.5 nM
B21	17.4 nM
B22	13000 nM
B23	38.5 nM
B24	93.1 nM
B25	30.8 nM
B26	25.4 nM
B27	31 nM
B28	4.4 nM
B29	71.3 nM
